# B1: ADWA11 2.4 (IgG) (antibody, V domains shown)
# VH: EVQLVESGGGLVQPGGSLRLSCAASGFNIKDYYMNWVRQAPGKGLEWVGWIDPDQGNTIYEPKFQGRFTISADTSKNSAYLQMNSLRAEDTAVYYCARRLLMDYWGQGTLVTVSS
# VL: DIQMTQSPSSLSASVGDRVTITCRSTKSLSHFNGNTYLFWYQQKPGKAPKRLIYYMSSLASGVPSRFSGSGSGTDFTLTISSLQPEDFATYYCQQSLEYPFTFGGGTKVEIKR
# notes: Human IgG1 effectorless (L234A, L235A, G237A), kappa; also called ADWA11 VH05-2/VK01(2.4); ADWA11_VH05-2_VK01(2.4)
# Assays:
# [1] = molecular target: T1, recombinant human αvβ6 integrin (human, UniProt P06756 31-992; P18564 22-707); assay: SPR (Biacore), recombinant integrin immobilised
# T1 construct: Used in ELISA and immobilised on the Biacore chip; construct not described; also called hαvβ6; AVB6
# Method: (§1) To evaluate the specificity of ADWA11 2.4, recombinant human αvβ6 and αvβ3 were immobilized on a Biacore chip and binding of the parental murine and humanized mAb variant of ADWA11 2.4 was determined.
# [2] = molecular target: T2, recombinant human αvβ3 integrin (human, UniProt P06756 31-992; P05106 27-718); assay: SPR (Biacore), recombinant integrin immobilised
# T2 construct: Used in ELISA and immobilised on the Biacore chip; construct not described; also called hαvβ3; AVB3
# Method: as §1
# [3] = molecular target: T3, human αvβ3 integrin on HEK293-F cells (human, UniProt P06756 31-1048; P05106 27-788); assay: flow cytometry, titration of ADWA11 2.4 on HEK cells overexpressing human integrin β3 (gMFI minus secondary), right panel
# T3 construct: whole, on cells; HEK293-F cells transiently expressing the full length beta subunit; also called HEK cells expressing αvβ3
# Method: (§2) For cell-binding experiments with HEK293-F cells overexpressing human αvβ3, αvβ5, αvβ6, αvβ8. HEK293-F cells transiently expressing full length human integrin beta 3 (Accession No. NP_000203.2), human integrin beta 5 (Accession No. NP_002204.2), human integrin beta 6 (Accession No. NP_000879.2), or human integrin beta 8 (Accession No. NP_002205.1) were prepared using proprietary vectors and vendor provided protocols. Cells were harvested after 4 days and analyzed for integrin expression. To characterize Integrin αvβ3, αvβ5, αvβ6, αvβ8 expression 100,000 cells were incubated in the indicated commercially available or directly conjugated proprietary antibodies for 30 minutes, along with LIVE/DEAD fixable cell stain (Invitrogen) at 1:2000 to distinguish live cells. Cells were spun down for five minutes at 300 g force. The cells were then washed twice with wash buffer (PBS+0.2% BSA) to remove excess unbound antibodies and ananalysed on BD biosciences Fortessa flow cytometer
# (§3) 100,000 cells were incubated with a dilution series of the anti-αvβ8 or human IgG1_3 mut Isotype antibody for three to four hours on ice. […] After washing, the stained cells were analyzed on BD biosciences Fortessa flow cytometer (gated for live cells) using FlowJo analysis software. The mean fluorescence intensities (MFI) at different antibody concentrations were plotted for various antibodies.
# [4] = molecular target: T4, human αvβ8 integrin on U251 cells (human, UniProt P06756 31-1048); assay: flow cytometry on U251 cells
# [5] = molecular target: T5, mouse αvβ8 integrin on C8-S cells (mouse, UniProt P43406 31-1044; Q0VBD0 22-767); assay: flow cytometry, IgG binding to C8-S cells (MFI PE-A), right panel ADWA11_IgG_C8-S cell binding; EC50 unit inferred, axis Log10 [mAb] nM
# T5 construct: Endogenous αvβ8 of C8-S mouse astrocyte cells; also called C8-S (mouse astrocyte); C8-S (mouse avb8)
# Method: (§4) 100,000 cells were incubated with a dilution series of the anti-αvβ8 or human IgG1_3 mut Isotype antibody for three to four hours on ice. The cells were spun down for five minutes at 300 g force. The cells were then washed three times with wash buffer (PBS+0.2% BSA) to remove excess unbound antibodies. After thorough washing, cells were incubated with Fab′2 anti-human Fc-PE (Invitrogen) or goat Fab′2 anti-mouse-APC (Jackson Labs) at 1:1000 dilution along with LIVE/DEAD fixable cell stain (Invitrogen) at 1:2000 to distinguish live cells. The whole content was incubated for 30 minutes on ice. After washing, the stained cells were analyzed on BD biosciences Fortessa flow cytometer (gated for live cells) using FlowJo analysis software. The mean fluorescence intensities (MFI) at different antibody concentrations were plotted for various antibodies.
# (§5) The apparent-affinity of ADWA11 2.4 for U251 (human glioblastoma) or C8-S (mouse astrocyte) cells was also evaluated in a cell-binding assay, according to the methods as generally described herein. Briefly, cells were incubated with a serial dilution of ADWA11 2.4 for 4 hours on ice, followed by detection on bound antibody with an anti-human-PE secondary antibody, and analyzed by flow cytometry.
# [6] = molecular target: T5, mouse αvβ8 integrin on C8-S cells; assay: flow cytometry on C8-S cells
# Method: as §4, §5
# [7] = molecular target: T4, human αvβ8 integrin on U251 cells; assay: cell-based or functional assay
# [8] = molecular target: T6, human αvβ8 integrin on HEK293-F cells (human, UniProt P06756 31-1048; P26012 43-769); assay: flow cytometry, titration on HEK cells overexpressing human integrin β8, right panel
# T6 construct: whole, on cells; HEK293-F cells transiently expressing the full length beta subunit; also called HEK cells expressing αvβ8
# Method: as §2, §3
# [9] = molecular target: T4, human αvβ8 integrin on U251 cells
# [10] = molecular target: T4, human αvβ8 integrin on U251 cells; assay: flow cytometry, IgG binding to U251 cells (MFI PE-A), left panel ADWA11_IgG_U251 cell binding; EC50 unit inferred, axis Log10 [mAb] nM
# [11] = molecular target: T4, human αvβ8 integrin on U251 cells; assay: flow cytometry on live U251 cells, 4 hours on ice, anti-human-PE secondary, n=3
# [12] = molecular target: T7, human αvβ6 integrin on HEK293-F cells (human, UniProt P06756 31-1048; P18564 22-788); assay: flow cytometry, titration of ADWA11 2.4 on HEK cells overexpressing human integrin β6 (gMFI minus secondary), right panel
# T7 construct: whole, on cells; HEK293-F cells transiently expressing the full length beta subunit; also called HEK cells expressing αvβ6
# Method: as §2, §3
# [13] = molecular target: T8, human αvβ5 integrin on HEK293-F cells (human, UniProt P06756 31-1048; P18084 24-799); assay: flow cytometry, titration of ADWA11 2.4 on HEK cells overexpressing human integrin β5 (gMFI minus secondary), right panel
# T8 construct: whole, on cells; HEK293-F cells transiently expressing the full length beta subunit; also called HEK cells expressing αvβ5
# Method: as §2, §3
# [14] = molecular target: T5, mouse αvβ8 integrin on C8-S cells; assay: cell-based or functional assay
# T5 sequence (P43406 31-1044 limits assumed, chain 1 of 2): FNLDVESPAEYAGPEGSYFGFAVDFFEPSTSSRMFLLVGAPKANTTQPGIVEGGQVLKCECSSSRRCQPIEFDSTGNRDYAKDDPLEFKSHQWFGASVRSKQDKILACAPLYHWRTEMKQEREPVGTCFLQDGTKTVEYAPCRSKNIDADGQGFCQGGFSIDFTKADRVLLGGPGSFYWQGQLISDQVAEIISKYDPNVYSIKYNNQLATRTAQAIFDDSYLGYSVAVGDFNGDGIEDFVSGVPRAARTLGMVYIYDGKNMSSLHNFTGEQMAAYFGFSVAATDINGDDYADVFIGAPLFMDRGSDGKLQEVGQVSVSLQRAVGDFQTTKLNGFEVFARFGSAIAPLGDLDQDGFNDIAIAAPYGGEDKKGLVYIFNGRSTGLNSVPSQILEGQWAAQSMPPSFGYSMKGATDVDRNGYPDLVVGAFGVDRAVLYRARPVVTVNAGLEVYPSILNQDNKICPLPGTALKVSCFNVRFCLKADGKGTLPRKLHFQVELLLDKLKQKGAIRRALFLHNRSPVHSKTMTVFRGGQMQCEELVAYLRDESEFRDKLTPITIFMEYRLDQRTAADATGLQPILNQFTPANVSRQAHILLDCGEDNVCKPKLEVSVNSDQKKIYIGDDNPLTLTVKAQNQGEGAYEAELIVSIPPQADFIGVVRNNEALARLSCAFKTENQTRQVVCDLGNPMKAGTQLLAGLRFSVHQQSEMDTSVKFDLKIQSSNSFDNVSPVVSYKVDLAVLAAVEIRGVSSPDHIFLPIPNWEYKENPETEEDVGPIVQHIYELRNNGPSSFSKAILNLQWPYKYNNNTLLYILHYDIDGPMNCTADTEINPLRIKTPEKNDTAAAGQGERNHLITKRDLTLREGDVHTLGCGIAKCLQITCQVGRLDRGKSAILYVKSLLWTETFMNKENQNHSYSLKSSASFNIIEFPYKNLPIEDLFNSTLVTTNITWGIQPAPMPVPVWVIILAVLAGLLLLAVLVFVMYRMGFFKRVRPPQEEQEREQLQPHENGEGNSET
# T5 sequence (Q0VBD0 22-767 limits assumed, chain 2 of 2): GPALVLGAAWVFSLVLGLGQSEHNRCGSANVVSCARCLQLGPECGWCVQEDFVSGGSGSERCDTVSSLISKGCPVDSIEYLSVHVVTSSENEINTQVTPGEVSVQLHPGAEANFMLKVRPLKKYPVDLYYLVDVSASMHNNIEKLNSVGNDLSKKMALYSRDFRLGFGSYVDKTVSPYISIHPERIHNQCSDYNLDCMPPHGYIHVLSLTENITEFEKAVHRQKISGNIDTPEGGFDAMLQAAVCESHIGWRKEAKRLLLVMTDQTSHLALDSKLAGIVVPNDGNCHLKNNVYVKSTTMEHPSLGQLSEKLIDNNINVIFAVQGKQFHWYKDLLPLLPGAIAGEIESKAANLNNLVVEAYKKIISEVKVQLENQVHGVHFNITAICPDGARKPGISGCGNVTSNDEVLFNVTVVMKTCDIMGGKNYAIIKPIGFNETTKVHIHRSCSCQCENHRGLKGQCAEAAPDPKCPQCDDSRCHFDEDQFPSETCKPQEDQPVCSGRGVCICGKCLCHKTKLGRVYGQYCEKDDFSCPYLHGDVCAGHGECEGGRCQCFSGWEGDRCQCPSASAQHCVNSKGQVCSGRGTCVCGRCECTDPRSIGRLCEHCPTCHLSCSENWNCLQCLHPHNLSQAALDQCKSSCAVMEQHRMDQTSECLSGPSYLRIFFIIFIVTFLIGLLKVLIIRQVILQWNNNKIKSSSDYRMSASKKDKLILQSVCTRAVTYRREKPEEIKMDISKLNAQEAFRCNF
# T1 sequence (P06756 31-992 limits assumed, chain 1 of 2): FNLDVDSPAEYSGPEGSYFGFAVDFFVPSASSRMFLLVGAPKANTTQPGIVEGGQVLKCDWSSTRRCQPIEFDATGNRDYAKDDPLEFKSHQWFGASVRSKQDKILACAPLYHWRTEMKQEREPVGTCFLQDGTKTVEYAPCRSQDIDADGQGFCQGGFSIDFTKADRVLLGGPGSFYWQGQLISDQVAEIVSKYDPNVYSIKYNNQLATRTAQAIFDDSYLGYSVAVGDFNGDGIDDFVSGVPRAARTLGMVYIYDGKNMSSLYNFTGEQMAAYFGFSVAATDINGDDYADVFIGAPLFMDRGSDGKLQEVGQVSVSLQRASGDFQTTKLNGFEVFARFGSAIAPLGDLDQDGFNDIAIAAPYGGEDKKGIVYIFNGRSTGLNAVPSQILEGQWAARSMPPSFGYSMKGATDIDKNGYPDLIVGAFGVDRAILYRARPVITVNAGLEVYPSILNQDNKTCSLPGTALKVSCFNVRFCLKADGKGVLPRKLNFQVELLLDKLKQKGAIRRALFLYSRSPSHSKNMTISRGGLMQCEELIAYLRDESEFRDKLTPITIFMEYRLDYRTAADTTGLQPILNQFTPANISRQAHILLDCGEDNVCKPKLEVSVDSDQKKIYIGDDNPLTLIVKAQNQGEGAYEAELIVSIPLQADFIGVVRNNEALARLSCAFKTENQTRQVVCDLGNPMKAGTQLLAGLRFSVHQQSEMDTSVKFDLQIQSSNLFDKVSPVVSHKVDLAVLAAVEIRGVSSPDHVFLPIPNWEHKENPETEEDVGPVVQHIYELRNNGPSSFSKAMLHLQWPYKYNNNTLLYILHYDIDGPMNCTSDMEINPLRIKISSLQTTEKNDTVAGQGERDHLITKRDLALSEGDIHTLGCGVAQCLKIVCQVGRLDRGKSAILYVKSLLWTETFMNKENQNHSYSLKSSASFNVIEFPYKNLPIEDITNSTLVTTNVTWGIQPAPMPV
# T1 sequence (P18564 22-707 limits assumed, chain 2 of 2): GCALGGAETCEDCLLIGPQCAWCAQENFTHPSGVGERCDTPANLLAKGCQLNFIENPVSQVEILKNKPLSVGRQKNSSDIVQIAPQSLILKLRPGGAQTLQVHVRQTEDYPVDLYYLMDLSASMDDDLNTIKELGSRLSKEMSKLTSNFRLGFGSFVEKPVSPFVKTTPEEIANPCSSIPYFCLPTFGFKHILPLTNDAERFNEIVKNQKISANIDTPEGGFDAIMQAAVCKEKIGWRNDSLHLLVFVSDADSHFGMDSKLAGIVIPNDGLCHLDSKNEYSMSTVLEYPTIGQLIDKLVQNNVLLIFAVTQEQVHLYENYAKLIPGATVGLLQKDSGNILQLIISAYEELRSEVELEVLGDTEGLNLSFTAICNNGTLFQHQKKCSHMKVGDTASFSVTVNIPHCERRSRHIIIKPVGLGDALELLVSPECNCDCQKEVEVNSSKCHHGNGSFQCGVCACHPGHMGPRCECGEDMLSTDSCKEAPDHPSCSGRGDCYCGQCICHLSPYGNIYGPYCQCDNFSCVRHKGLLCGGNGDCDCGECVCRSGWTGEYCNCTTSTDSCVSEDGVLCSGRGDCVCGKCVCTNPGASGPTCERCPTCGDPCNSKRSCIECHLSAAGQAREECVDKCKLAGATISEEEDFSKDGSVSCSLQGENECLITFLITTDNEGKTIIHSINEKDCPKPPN
# T2 sequence (P06756 31-992 limits assumed, chain 1 of 2): as the sequence (P06756 31-992 limits assumed, chain 1 of 2) above
# T2 sequence (P05106 27-718 limits assumed, chain 2 of 2): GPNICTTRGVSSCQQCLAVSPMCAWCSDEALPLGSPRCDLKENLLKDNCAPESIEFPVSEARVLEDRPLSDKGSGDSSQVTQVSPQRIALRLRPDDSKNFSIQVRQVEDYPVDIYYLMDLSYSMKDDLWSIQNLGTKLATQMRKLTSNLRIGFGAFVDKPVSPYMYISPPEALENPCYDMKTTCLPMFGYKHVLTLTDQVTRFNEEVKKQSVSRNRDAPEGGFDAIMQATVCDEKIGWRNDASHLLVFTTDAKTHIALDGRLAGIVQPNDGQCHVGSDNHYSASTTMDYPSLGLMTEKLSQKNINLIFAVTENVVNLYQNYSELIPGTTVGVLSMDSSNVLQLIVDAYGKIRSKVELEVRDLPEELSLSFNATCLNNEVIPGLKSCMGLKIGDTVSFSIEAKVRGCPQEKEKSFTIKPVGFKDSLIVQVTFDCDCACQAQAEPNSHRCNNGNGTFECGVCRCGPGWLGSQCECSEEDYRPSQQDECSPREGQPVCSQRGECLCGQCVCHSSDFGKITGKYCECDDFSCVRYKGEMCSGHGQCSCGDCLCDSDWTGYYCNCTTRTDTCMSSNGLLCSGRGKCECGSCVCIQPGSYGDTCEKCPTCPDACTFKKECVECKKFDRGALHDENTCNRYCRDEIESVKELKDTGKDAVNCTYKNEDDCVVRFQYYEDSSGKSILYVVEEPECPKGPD
binder,measurement,setting,value
B1,binding result,[1],no binding
same,binding result,[2],no binding
same,binding result,[3],no binding (tested: 100 nM)
same,EC50,[4],256 pM
same,EC50,[5],115 pM
same,EC50,[6],145 pM
same,IC50 in the TGFβ transactivation assay with U251 cells,[7],199 pM
same,EC50 (read off the curve),[8],~2000 pM
same,IC50 (read off the curve),[9],100 pM
same,EC50,[10],105 pM
same,EC50,[11],126 pM
same,binding result,[12],no binding (tested: 100 nM)
same,binding result,[13],no binding (tested: 100 nM)
same,IC50 (read off the curve),[14],~200 pM

# Reference: patent US20200079855A1 (Pfizer, published 2020)
